Test results taken from patent publication US20250231186A1.

Tests used:
[1] = molecular target: 5c.c7 TCR on CD4+ T cells from 5c.c7 TCR Rag KO mice (mouse); experiment: T102S tetramer staining of transferred 5c.c7 CD4+ T cells, flow cytometry
[2] = molecular target: I-E^k MHCII on tethered pMHC-II expressing M12 cells; experiment: cell coupling (CATS) of B10.A CD4+ T cells with pre-blocked pMHC+ M12 cells
[3] = molecular target: MCC 88-103 peptide tethered to full-length I-E^k on M12 cells (mouse) (UniProt P04224); experiment: cell coupling (CATS) of B10.A CD4+ T cells with M12 cells pre-blocked with 20 µg/mL 14-4-4S; competitor: TCRs of B10.A CD4+ T cells
[4] = molecular target: T102S altered peptide ligand of MCC tethered to full-length I-E^k on M12 cells (mouse) (UniProt P04224); experiment: as above
[5] = molecular target: mouse hemoglobin d allele Hb 64-76 peptide tethered to full-length I-E^k on M12 cells (mouse) (UniProt P04224); experiment: as above
[6] = molecular target: MCC 88-103 peptide tethered to full-length I-E^k on M12 cells (mouse) (UniProt P04224); experiment: cell coupling (CATS) with MCC M12 cells, flow cytometry
[7] = molecular target: T102S altered peptide ligand of MCC tethered to full-length I-E^k on M12 cells (mouse) (UniProt P04224); experiment: cell coupling (CATS) of transferred 5c.c7 CD4+ T cells with T102S M12 cells, flow cytometry
[8] = molecular target: MCC 88-103 peptide tethered to full-length I-E^k on M12 cells (mouse) (UniProt P04224); experiment: cell coupling (CATS) of 5c.c7 CD4+ T cells with MCC M12 cells, Hb M12 as dump, flow cytometry

Substance: T102S:I-E^k tetramer (from UniProt P22629 37-163; P04224 26-216) (peptide-MHC)
- percentage of 5c.c7 CD4+ T cells identified [1]: 0%

Substance: 14-4-4S anti-I-E^k MHCII antibody
- fold lower relative coupling in blocked state [2]: 3 to 5 fold
- fold decrease in coupling when blocked [3]: 4 fold
- fold decrease in coupling when blocked [4]: 3 fold
- fold decrease in coupling when blocked [5]: 4 fold

Substance: 5c.c7 TCR expressed on 58α^-β^- hybridoma cells (α chain fused C-terminally to mEGFP)
- coupling percentage [6]: 30%

Substance: 5c.c7 TCR on CD4+ T cells from 5c.c7 TCR Rag KO mice
- percentage of 5c.c7 CD4+ T cells identified [7]: 70%
- coupling percentage [8]: 60 to 85%
